Test results from paper PMC12562343, “Modular Virus-like Particles for Antigen Presentation: Comparing Genetic Fusion and Click-Chemistry for Purification” (International Journal of Molecular Sciences, 2025).

Columns and labels:
[1] = target: HBc-pAzF (HBc ending at Val149 with p-azidophenylalanine in place of Ala80) (Hepatitis B virus genotype D, serotype ayw) (UniProt P03146); assay: SEC; analytical HPLC-SEC of urea-dissociated samples: purified HBc VLPs after incubation with 4 M urea, and AEX eluates in 2 M urea; capsid to dimers
[2] = target: the molecule itself; assay: as above

Row | Molecule | stoichiometry N [1] | stoichiometry N [2]
1 | HBc-pAzF (HBc ending at Val149 with p-azidophenylalanine in place of Ala80) (from UniProt P03146 1-149) (domain or fragment) | 2 | –
2 | truncated Hepatitis B core antigen (HBc) ending at Val149 (domain or fragment, Hepatitis B core antigen (capsid protein), HBV genotype D, serotype ayw, truncated variant ending at Val149; Forms dimers that assemble into VLPs; no tag is mentioned; also called HBc149; unmodified HBc; source: E. coli BL21(DE3), purified (AMS precipitation, AEX native or under dissociating conditions, HIC)) MDIDPYKEFGATVELLSFLPSDFFPSVRDLLDTASALYREALESPEHCSPHHTALRQAILCWGELMTLATWVGVNLEDPASRDLVVSYVNTNMGLKFRQLLWFHISCLTFGRETVIEYLVSFGVWIRTPPAYRPPNAPILSTLPETTVV | – | 2
